For 1 substance, Kd and percent of the high affinity binding restored after washout of the metabolic inhibitors results are on record in patent US5523209.

Assay [1] addresses integrin α5 β1 on CHO cells (hamster). The assay can be described thus: binding of soluble 125I-Fn to CHO cells.
Assay [2] shares this target. The assay can be described thus: 125I-Fn binding to CHO cells washed free of NaN3 and 2-deoxyglucose.

As a reminder, the Kd is the equilibrium constant for the complex coming apart. As to “fibronectin (from UniProt P02751) (ligand)”, the equilibrium dissociation constant (Kd) in assay [1] was found to be 100 nM. This substance returned a percent of the high affinity binding restored after washout of the metabolic inhibitors in assay [2] of 75%.
